Test results taken from paper PMC10616847.

Assays:
[1] = target: thrombin-specific peptide with the cleavage site
[2] = target: thrombin-specific peptide with the cleavage site; assay: single-particle plasmon sensing (dark-field scattering microscopy of gold nanorods); peptide held on gold nanorods on a coverslip in a flow cell; thrombin 1-300 nM injected at 5 uL/min in 50 mM Tris-HCl, 10 mM CaCl2, 150 mM NaCl, pH 8.4; rate constants of a three-stage kinetic model adjusted to match the plasmon-shift time traces
[3] = target: thrombin-specific peptide with the cleavage site; assay: single-particle plasmon sensing (dark-field scattering microscopy of gold nanorods); same sensor; standard deviation of the start time t0 of cleavage among particles against thrombin concentration, fitted with Poisson statistics of the waiting time for the first enzyme to bind to a particle; additional uncertainty of 20 s allowed

Chain of thrombin-specific peptide with the cleavage site (peptide, as listed by the source): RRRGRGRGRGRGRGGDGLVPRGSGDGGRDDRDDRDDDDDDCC

peptide cleavage rate kb from the kinetic model matched to the plasmon-shift time traces [1]: 0.01 s^–1
kon [2]: 200000 M⁻¹ s⁻¹
kon [3]: 100000 M⁻¹ s⁻¹
Substance: active thrombin (enzyme)
